Measurements from patent US20250026813A1 (published 2025).

How the values were obtained:
[1] = target: SARS-CoV-2 spike protein bearing furin mutation and truncation in retention sequence, presented in t (SARS-CoV-2, UniProt P0DTC2 14-1273); assay: cell-based or functional assay
[2] = target: T1, S1 subunit of the SARS-CoV-2 spike protein (Sino Biological 40591-V08H), His tag (SARS-CoV-2, UniProt P0DTC2 16-685)
T1 construct: domain: S1 subunit

[3] = target: full-length stabilised spike trimer protein of SARS-CoV-2 virus (in-house, soluble ECD with trimeris (SARS-CoV-2, UniProt P0DTC2 14-1208; P10104 458-484)

Binder | PV neutralisation IC50 [1] | PV neutralization % (Ab 1 ug/mL) [1] | HTRF deltaF [2] | HTRF deltaF [3]
YANG-2301 (antibody, V domains shown) VH: QVHLIQSGAEVKKPGASVKVSCKVSGYTLIEVSVHWVRQAPGKGLEWMGGFDPEAAETIYAQKFQGRVTMTEDTSTDTAYMDLSSLKSEDSAVYYCAIGPAVTGRNSGEYYYYYGMDVWGQGTTVTVAS VL: EIVMTQSPATLSVSPGERATLSCRASQSVNSNLAWYQQKPGQAPRLLIYAVSTRATGLPARFSGSGSGTEFTLTISSLQSEDFVVYYCHQYNNWPLTFGGGTKVEIK | 0.53 nM | 56.4% | – | –
IMPI-054 (antibody, V domains shown) VH: EVQLVESGGGLIQPGGSLRLSCAASGLTVSSNYMSWVRQAPGKGLEWVSIIYSGGSTYYADSVKGRFTISRDNSKNTLYLQMNSLRAEDTAVYYCARLGGYYYYGMDVWGQGTTVTVSS VL: DIQMTQSPSSLSASVGERVTITCQASQDIRNYLNWYQKKPGKAPKLLIYDSSNLETGVPSRFSGSGSGTDFTFTISSLQPEDIATYYCQQYDNLPITFGQGTRLEIK | – | – | 772 deltaF | 563 deltaF
IMPI-042 (antibody, V domains shown) VH: EVQLVESGGGLIQPGGSLRLSCAASGLTVSSNYMSWVRQAPGKGLEWVSIIYSGGSTYYADSVKGRFTISRDNSKNTLYLQMNSLRAEDTAVYYCARLGGYYYYGMDVWGQGTTVTVSS VL: DIQMTQSPSSLSASVGERVTITCQASQDIRNYLNWYQKKPGKAPKLLIYDSSNLETGVPSRFSGGGSGTDFTFTISSLQPEDIATYYCQQYDNLPITFGQGTRLEIK | – | – | 617 deltaF | 926 deltaF
IMPI-024 (antibody, V domains shown) VH: EVQLVQSGAEVKKPGESLKISCKGSGYSFTSYWIGWVRQMPGKGLEWMGIIYPGDSDTRYSPSFQGQVTISADKSISTAYLQWSSLKASDTAMYYCVRSYNWNYFDYWGQGTLVTVSS VL: AIQLTQSPSSLSASVGDRVTITCRASQGISSGLAWYQQKAGKAPKLLIYDVSSLESGVPSRFSGSGSGTDFTLTISSLQPEDFATYYCQQFLSYPWTFGQGTKVEIK | – | – | 799 deltaF | 1460 deltaF
YANG-2304 (antibody, V domains shown) VH: QVQLVQSGTEVKKPGASVKVSCKVSGYTLPELAIHWVRQAPGKGLEWMGTFDPEDGETICAQKFQGRVTMTEDTSTDTAYMDLSSLRSEDTAVYYCATTSIIAARWWFDPWGQGTLVTVSS VL: QSALTQPPSASGSPGQSVTISCTGTSSDVGGYDYVSWYQQHPGKAPKLMIYEVSKRPSGVPDRFSGSKSGNTASLTVSGLQAEDEADYYCSSFAGSNNVVFGGGAKLTVL | 0.74 nM | 52.8% | – | –
YANG-2306 (antibody, V domains shown) VH: QVQLVQSGAEVKKPGASVKVSCKVSGYTLPEISIHWVRQAPGKGLEWMGGFDPEDGETIYAQKFQGRVIMTEDTSTDTAYMDLSSLRSEDTAVYFCAAAPAIASASTFWLDPWGQGTLVTVST VL: QSALTQPPSASGSPGQSVTISCTGTSSDVGGYNYVSWYQQHPGKAPKLMIYEVTKRPSGVPDRFSGSKSDNTASLTVSGLQAEDEADYYCSSYAGSNNLVFGGGTKLTVL | 0.43 nM | 60.4% | – | –
IMPI-063 (antibody, V domains shown) VH: EVQLVESGGGVVRPGGSLRLSCAASGFTFDDYGMSWVRQAPGKGLEWVSGIYWNGGSTGYADSVKGRFTISRDNAKNSLYLQMNSLRAEDMALYYCARGVGATDYWGQGTLVTVSS VL: EIVLTQSPGTLSLSSGERATLACRASESVRGSFLAWYQQKPGQAPRLLIYGASRRATGIPDRFSGSGSGTDFTLTISRLEPEDFAVYYCQQYGNSPMCSFGQGTKLEIK | – | – | -0.4 deltaF | 968 deltaF
YANG-2303 (antibody, V domains shown) VH: QVQLVQSGAEVKKPGASVRVSCKVSGYTLPELAIHWVRQAPGKGLEWMGGFDPEDGETIYAQKFQGRVIMTEDTSTDTAYMDLSSLRSEDTAVYYCVKTWAAPGYNYGLDTWGQGTTVTVSS VL: EIVLTQSPGILSLSPGESATLSCRASQSIASNYLAWFQQKPGQAPRLLIYGASSRAAGFPDRFSGSGSGTDFTLTIKRLEPEDSAVYYCQHYGSSPCSFGQGTNLEIK | 0.48 nM | 58.6% | – | –
IMPI-029 (antibody, V domains shown) VH: EVQLVESGGGLIQPGGSLRLSCAASGVTVSSNYMNWVRQAPGKGLEWVSVIYSGGSTYYADSVKGRFTISRDNSKNTLFLQMNSLRAEDSAVYYCARDLGPYGVDVWGQGTTVTVSS VL: DIQLTQSPSFLSASVGDRVTITCWASQGISSYLAWYQQKPGKAPKLLIYAASTLQSGVPSRFSGSGSGTEFTLTISSLQPEDFATYYCQELNSYPLTFGQGTRLEIK | – | – | 3050 deltaF | 1700 deltaF
IMPI-047 (antibody, V domains shown) VH: EVQLVESGGGLIQPGGSLRLSCAASGFTVSSNYMNWVRQAPGKGLEWVSVIYSGGSTYYADSVKGRFTISRDNSKNTLYLQMNSLRTEDTAVYYCARDLVAYGMDVWGQGTTVTVSS VL: DIQLTQSPSFLSASVGDRVTITCWASQGISSYLAWYQQKPGKAPKVLIYAASTLQSGVPSRFSGSGSGTEFTLTISSLQPEDFATYYCQLLNSNPLTFGGGTKVEIK | – | – | 2250 deltaF | 1410 deltaF
IMPI-060 (antibody, V domains shown) VH: EVQLVESGGGLIQPGGSLRLSCAASGVTVSSNYMSWVRQAPGKGLEWVSVIYSGGSTFYADSVKGRFTISRDNSKNTLYLQMNSLRAEDTAVYYCARDLSYYGMDVWGQGTTVTVSS VL: DIQLTQSPSFLSASVGDRVTITCWASQGISSYLAWYQQKPGKAPKLLIYAASTLQSGVPSKFSGSGSGTEFTLTISSLQPEDFATYYCQQLNSYPSSFGQGTKLEIK | – | – | 378 deltaF | 488 deltaF
IMPI-021 (antibody, V domains shown) VH: EVQLVESGGGLIQPGGSLRLSCAASGVTVSSNYMSWVRQAPGKGLEWVSVIYSGGSTFYADSVKGRFTISRDNSKNTLYLQMNSLRAEDTAVYYCARDLSYYGMDVWGQGTTVTVSS VL: DIQLTQSPSFLSASVGDRVTITCWASQGISSYLAWYQQKPGKAPKLLIYAASTLQSGVPSKFSGSGSGTEFTLTISSLQPEDFATYYCQQLNSYPCSFGQGTKLEIK | – | – | 1280 deltaF | 962 deltaF
IMPI-005 (antibody, V domains shown) VH: EVQLVESGGGLIQPGGSLRLSCAASGFTVSSNYMNWVRQAPGKGLEWVSVIYSGGSTYYADSVKGRFTISRDNSKNTLFLQMNSLRAEDSAVYYCARDLGPYGVDVWGQGTTVTVSS VL: DIQLTQSPSFLSASVGDRVTITCWASQGISSYLAWYQQKPGKAPKLLIYAASTLQSGVPSRFSGSGSGTEFTLTISSLQPEDFATYYCQELNSYPLTFGQGTRLEIK | – | – | 1510 deltaF | 1360 deltaF
YANG-2305 (antibody, V domains shown) VH: QVQLVESGGGVVQPGRSLRLSCAASGFTFSSYGMHWVRQAPGKGLEWVAIIWYDGSKKYYADSVKGRFTISRDNSKNTLNLQMNSLRAEDTAVYYCAREEDIVASGGLYYNFNGMDVWGQGTTVTVSS VL: not shown | 0.57 nM | 64.4% | – | –
YANG-2302 (antibody, V domains shown) VH: QVQLVQSGAEVRKPGASVKVSCKVSGYTLPELAIHWVRQAPGKGLEWMGGFIPEDGDTIYAQKFQGRVTMTEDTSTDTAYMDLTSLRSEDAAVYYCTSGWAAPGYNYGMAVWGQGTTVTVSS VL: EVVLTQSPGTLSLSSGERATLSCRASQSVSSNYLAWYQKKPGQAPRLLIYGASSRVTGIPDRFGGSGSGTDFTLTISRLEPEDFAVYYCQQYDASPYSFGQGTKLDIK | 0.61 nM | 52.2% | – | –
